Data reported in patent publication US20120156130A1 (published 2012).

B1: U1-59, fully human anti-HER3 monoclonal antibody (antibody, V domains shown)
VH: QVQLQQWGAGLLKPSETLSLTCAVYGGSFSGYYWSWIRQPPGKGLEWIGEINHSGSTNYNPSLKSRVTISVETSKNQFSLKLSSVTAADTAVYYCARDKWTWYFDLWGRGTLVTVSS
VL: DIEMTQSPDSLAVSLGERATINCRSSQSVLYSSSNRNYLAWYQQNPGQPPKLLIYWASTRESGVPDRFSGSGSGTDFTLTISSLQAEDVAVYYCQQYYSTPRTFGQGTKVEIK
B2: U1-53, anti-HER3 antibody (antibody, V domains shown)
VH: EVQLVESGGGLVQPGGSLRLSCAASGFTFSIYSMNWVRQAPGKGLEWVSYISSSSSTIYYADSVKGRFTISRDNAKNSLYLQMNSLRDEDTAVYYCARDRGDFDAFDIWGQGTMVTVSS
VL: DIQMTQSPSSLSASVGDRVTITCQASQDITNYLNWYQQKPGKAPKLLIYDASNLETGVPSRFSGSGSGTDFTFTISSLQPEDIATYNCQQCENFPITFGQGTRLEIK
B3: U1-49, anti-HER3 antibody (antibody, V domains shown)
VH: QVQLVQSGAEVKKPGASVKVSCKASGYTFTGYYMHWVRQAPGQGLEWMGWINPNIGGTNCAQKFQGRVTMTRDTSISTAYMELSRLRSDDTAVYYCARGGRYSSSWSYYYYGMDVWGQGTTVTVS
VL: DILMTQTPLSLSVTPGQPASISCKSSQSLLLSDGGTYLYWYLQKPGQPPQLLIYEVSNRFSGVPDRFSGSGSGTDFTLKISRVEAEDVGVYYCMQSMQLPITFGQGTRLEIK

target: HER3 on DU-145 and PC-3 prostate cancer cells (UniProt P21860 20-1342, limits assumed); test: cell-based or functional assay
Sequence (P21860 20-1342 limits assumed): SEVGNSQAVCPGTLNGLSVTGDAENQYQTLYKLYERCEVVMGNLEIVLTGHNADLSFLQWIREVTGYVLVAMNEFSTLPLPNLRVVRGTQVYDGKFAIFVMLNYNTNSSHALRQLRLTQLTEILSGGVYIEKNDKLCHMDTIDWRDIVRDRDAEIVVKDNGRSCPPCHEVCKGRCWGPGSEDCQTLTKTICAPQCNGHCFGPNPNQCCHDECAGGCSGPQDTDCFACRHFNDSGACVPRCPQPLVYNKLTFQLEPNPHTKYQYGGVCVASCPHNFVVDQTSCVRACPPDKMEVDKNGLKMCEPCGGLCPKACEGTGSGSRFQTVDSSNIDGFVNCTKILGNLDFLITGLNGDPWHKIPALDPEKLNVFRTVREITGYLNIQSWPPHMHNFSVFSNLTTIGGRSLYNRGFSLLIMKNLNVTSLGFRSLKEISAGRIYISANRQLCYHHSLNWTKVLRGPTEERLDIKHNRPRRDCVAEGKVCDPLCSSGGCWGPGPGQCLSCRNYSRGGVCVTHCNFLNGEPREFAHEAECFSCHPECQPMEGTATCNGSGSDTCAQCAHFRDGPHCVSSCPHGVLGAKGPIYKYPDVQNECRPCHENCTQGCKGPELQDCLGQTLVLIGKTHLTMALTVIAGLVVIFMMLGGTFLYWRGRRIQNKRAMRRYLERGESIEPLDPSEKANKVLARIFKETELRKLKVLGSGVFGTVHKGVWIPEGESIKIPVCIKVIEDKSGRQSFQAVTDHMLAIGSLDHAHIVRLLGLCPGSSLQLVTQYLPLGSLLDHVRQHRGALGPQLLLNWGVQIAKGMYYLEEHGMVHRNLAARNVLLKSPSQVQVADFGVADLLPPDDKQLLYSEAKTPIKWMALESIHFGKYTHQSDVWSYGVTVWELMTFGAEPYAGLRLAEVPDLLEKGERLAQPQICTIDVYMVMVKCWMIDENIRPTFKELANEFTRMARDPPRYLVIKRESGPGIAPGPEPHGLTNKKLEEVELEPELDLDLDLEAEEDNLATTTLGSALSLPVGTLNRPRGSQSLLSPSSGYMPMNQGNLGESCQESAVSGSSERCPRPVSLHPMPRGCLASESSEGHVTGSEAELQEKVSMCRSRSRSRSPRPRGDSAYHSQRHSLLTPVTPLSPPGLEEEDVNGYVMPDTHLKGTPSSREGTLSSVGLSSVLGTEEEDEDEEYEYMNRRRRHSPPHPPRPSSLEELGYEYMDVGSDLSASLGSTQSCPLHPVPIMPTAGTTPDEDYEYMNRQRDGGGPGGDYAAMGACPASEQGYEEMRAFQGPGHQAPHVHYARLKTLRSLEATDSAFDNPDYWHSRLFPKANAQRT

B1 and B2 are the same in “inhibition in colony formation (anchorage independent growth of PC-3 cells, soft agar)” value: 78% for the first, 78% for the second.

B3 was tested, and the “inhibition in colony formation (anchorage independent growth of PC-3 cells, soft agar)” value was 52%.
